Data reported in patent US20230044278A1 (DYNE THERAPEUTICS, published 2023).
Numbering of substitutions follows the chain as printed. Names may count otherwise.

Tests used:
[1] = target: T1, recombinant cynomolgus monkey (Macaca fascicularis) transferrin receptor 1 (cynomolgus monkey (Macaca fascicularis), UniProt Q5RDH6 87-760 (Pongo abelii entry), limits assumed); experiment: ELISA, thermal stability d9 (after 9 days at high temperature); printed as 'Binding affinity cyno TfR1 d9 (nM)'
T1 construct: also called cTfR1; cyno TfR1
T1 chain: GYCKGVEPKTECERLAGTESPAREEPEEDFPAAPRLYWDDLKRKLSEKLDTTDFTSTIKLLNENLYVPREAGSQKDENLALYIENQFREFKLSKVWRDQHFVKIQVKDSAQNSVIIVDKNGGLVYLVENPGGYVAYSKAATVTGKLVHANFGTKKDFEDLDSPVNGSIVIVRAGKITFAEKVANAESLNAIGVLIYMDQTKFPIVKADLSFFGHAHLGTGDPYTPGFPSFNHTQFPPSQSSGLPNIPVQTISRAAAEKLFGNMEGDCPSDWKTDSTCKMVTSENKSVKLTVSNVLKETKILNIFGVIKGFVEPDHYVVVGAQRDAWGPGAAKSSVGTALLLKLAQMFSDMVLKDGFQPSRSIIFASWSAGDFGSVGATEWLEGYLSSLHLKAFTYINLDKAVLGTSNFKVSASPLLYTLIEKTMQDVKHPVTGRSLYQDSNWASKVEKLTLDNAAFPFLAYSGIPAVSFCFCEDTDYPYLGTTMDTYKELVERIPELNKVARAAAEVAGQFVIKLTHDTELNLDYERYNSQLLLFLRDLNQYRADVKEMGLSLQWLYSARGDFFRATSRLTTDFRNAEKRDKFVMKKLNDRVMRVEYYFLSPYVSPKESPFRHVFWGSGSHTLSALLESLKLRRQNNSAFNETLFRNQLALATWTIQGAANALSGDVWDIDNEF
Procedure: The selected Fabs were analyzed for their properties binding to TfR1 by kinetic analysis. For conjugates shown in Table 8 and Table 9, the selected humanized Fabs were conjugated to a DMPK-targeting oligonucleotide ASO300.
(§1) To measure binding of humanized anti-TfR antibodies to TfR1, ELISAs were conducted. High binding, black, flat bottom, 96 well plates (Corning #3925) were first coated with 100 μL/well of recombinant huTfR1 at […] in PBS and incubated at 4° C. overnight. Wells were emptied and residual liquid was removed. Blocking was conducted by adding 200 μL of 1% BSA (w/w) in PBS to each well. Blocking was allowed to proceed for 2 hours at room temperature on a shaker at 300 rpm. After blocking, liquid was removed and wells were washed three times with 300 μL of TBST. Anti-TfR1 antibodies were then added in 0.5% BSA/TBST in triplicate in an 8 point serial dilution (dilution range 5 μg/mL-5 ng/mL). A positive control and isotype controls were also included on the ELISA plate. The plate was incubated at room temperature on an orbital shaker for 60 minutes at 300 rpm, and the plate was washed three times with 300 μL of TBST. Anti-(H+L)IgG-A488 (1:500) (Invitrogen #A11013) was diluted in 0.5% BSA in TBST, and 100 μL was added to each well. The plate was then allowed to incubate at room temperature for 60 minutes at 300 rpm on orbital shaker. The liquid was removed and the plate was washed four times with 300 μL of TBST. Absorbance was then measured at 495 nm excitation and […] (with a 15 nm bandwidth) on a plate reader. Data was recorded and analyzed for EC₅₀. […] ELISA measurements were conducted using cynomolgus monkey (Macaca fascicularis) TfR1 (cTfR1) according to the same protocol described above for hTfR1, and results are shown in FIGS. 1B, 1D, and 1F.

[2] = target: T2, recombinant human transferrin receptor 1 (human, UniProt P02786 89-760); experiment: ELISA, thermal stability d9 (after 9 days at high temperature); printed as 'Binding affinity hTfR1 d9 (nM)'
T2 construct: also called hTfR1; huTfR1
Procedure: as §1

[3] = target: T1, recombinant cynomolgus monkey (Macaca …); experiment: ELISA, Fab-ASO300 conjugate; printed as 'DMPK oligo conjugate binding to cyno TfR1 (nM)'
[4] = target: T2, recombinant human transferrin receptor 1; experiment: ELISA, Fab-ASO300 conjugate; printed as 'DMPK oligo conjugate binding to hTfR1 (nM)'; Table 9 (thermal stability table); DMPK oligo conjugate, hTfR1
[5] = target: T2, recombinant human transferrin receptor 1; experiment: ELISA, Fab-ASO300 conjugate; printed as 'DMPK oligo conjugate binding to hTfR1 (nM)'

B1: humanized anti-TfR Fab 5H12 (VH5-C33Y/Vk4) (Fab, V domains shown)
VH: QVQLVQSGAEVKKPGASVKVSCKASGYSFTDYYINWVRQAPGQGLEWMGWIYPGSGNTRYSERFKGRVTITRDTSASTAYMELSSLRSEDTAVYYCAREDYYPYHGMDYWGQGTLVTVSS
VL: DIVMTQSPDSLAVSLGERATINCRASESVDGYDNSFMHWYQQKPGQPPKLLIFRASNLESGVPDRFSGSGSGTDFTLTISSLQAEDVAVYYCQQSSEDPWTFGQGTKLEIKR
notes: unconjugated; also called 5H12 VH5 (C33Y*)/Vκ4
EC50 [1]: 0.26 nM
EC50 [2]: 1730 nM

B2: 5H12 (VH5-C33Y/Vk4) Fab conjugated to DMPK-targeting oligonucleotide ASO300 (Fab, V domains shown)
VH: B1 VH
VL: B1 VL
modifications: ASO300 oligonucleotide covalently conjugated via linker of Formula (C); residue and chain not stated
notes: also called DMPK oligo conjugate
EC50 [3]: 13.9 nM
EC50 [4]: 13.9 nM

B3: humanized anti-TfR Fab 5H12 (VH5-C33Y/Vk3) (Fab, V domains shown)
VH: B1 VH
VL: B1 VL with M4L, G72R
notes: unconjugated; also called 5H12 VH5 (C33Y*)/Vκ3
EC50 [1]: 0.69 nM
EC50 [2]: 71.9 nM

B4: humanized anti-TfR Fab 5H12 (VH5-C33D/Vk4) (Fab, V domains shown)
VH: B1 VH with Y33D
VL: B1 VL
notes: unconjugated; also called 5H12 VH5 (C33D*)/Vκ4
EC50 [1]: 0.63 nM
EC50 [2]: 92.3 nM

B5: humanized anti-TfR Fab 3A4 (VH3-N54T/Vk4) (Fab, V domains shown)
VH: EVQLVQSGSELKKPGASVKVSCTASGFNIKDDYMYWVRQPPGKGLEWIGWIDPETGDTEYASKFQDRVTVTADTSTNTAYMELSSLRSEDTAVYYCTLWLRRGLDYWGQGTLVTVSS
VL: DIVMTQSPLSLPVTPGEPASISCRSSKSLLHSNGYTYLFWFQQRPGQSPRLLIYRMSNLASGVPDRFSGSGSGTDFTLKISRVEAEDVGVYYCMQHLEYPFTFGGGTKVEIKR
notes: unconjugated; also called 3A4 VH3 (N54T*)/Vκ4
EC50 [1]: 128 nM
EC50 [2]: 0.4 nM

B6: 3A4 (VH3-N54T/Vk4) Fab conjugated to DMPK-targeting oligonucleotide ASO300 (Fab, V domains shown)
VH: B5 VH
VL: B5 VL
modifications: ASO300 oligonucleotide covalently conjugated via linker of Formula (C); residue and chain not stated
notes: also called 3A4 (VH3-N54T/Vk4) conjugate; DMPK oligo conjugate
EC50 [5]: 2.22 nM
EC50 [3]: 5.12 nM

B7: humanized anti-TfR Fab 3A4 (VH3/Vk4) (Fab, V domains shown)
VH: B5 VH with T55N
VL: B5 VL
notes: unconjugated; also called 3A4 VH3 /Vκ4
EC50 [1]: 878 nM
EC50 [2]: 0.46 nM

B8: 3A4 (VH3-N54S/Vk4) Fab conjugated to DMPK-targeting oligonucleotide ASO300 (Fab, V domains shown)
VH: B5 VH with T55S
VL: B5 VL
modifications: ASO300 oligonucleotide covalently conjugated via linker of Formula (C); residue and chain not stated
notes: also called 3A4 (VH3-N54S/Vk4) conjugate; DMPK oligo conjugate
EC50 [5]: 2.71 nM
EC50 [3]: 4.1 nM

B9: humanized anti-TfR Fab 3A4 (VH3-N54S/Vk4) (Fab, V domains shown)
VH: B5 VH with T55S
VL: B5 VL
notes: unconjugated; also called 3A4 VH3 (N54S*)/Vκ4
EC50 [1]: 248 nM
EC50 [2]: 0.65 nM

B10: humanized anti-TfR Fab 3M12 (VH3/Vk2) (Fab, V domains shown)
VH: QVQLQESGPGLVKPSQTLSLTCSVTGYSITSGYYWNWIRQPPGKGLEWMGYITFDGANNYNPSLKNRVSISRDTSKNQFSLKLSSVTAEDTATYYCTRSSYDYDVLDYWGQGTTVTVSS
VL: DIQMTQSPSSLSASVGDRVTITCRASQDISNFLNWYQQKPGQPVKLLIYYTSRLHSGVPSRFSGSGSGTDFTLTISSLQPEDFATYFCQQGHTLPYTFGQGTKLEIKR
notes: unconjugated; also called 3M12 VH3/Vκ2
EC50 [1]: 19.5 nM
EC50 [2]: 0.98 nM

B11: 3M12 (VH3/Vk2) Fab conjugated to DMPK-targeting oligonucleotide ASO300 (Fab, V domains shown)
VH: B10 VH
VL: B10 VL
modifications: ASO300 oligonucleotide covalently conjugated via linker of Formula (C); residue and chain not stated
notes: also called 3M12 (VH3/Vk2) conjugate; DMPK oligo conjugate
EC50 [5]: 1.14 nM
EC50 [3]: 2.26 nM

B12: 3M12 (VH4/Vk3) Fab conjugated to DMPK-targeting oligonucleotide ASO300 (Fab, V domains shown)
VH: B10 VH with S23T, M49I
VL: B10 VL with F87Y
modifications: ASO300 oligonucleotide covalently conjugated via linker of Formula (C); residue and chain not stated
notes: also called 3M12 (VH4/Vk3) conjugate; DMPK oligo conjugate
EC50 [5]: 1.18 nM
EC50 [3]: 1.85 nM

B13: humanized anti-TfR Fab 3M12 (VH4/Vk2) (Fab, V domains shown)
VH: B10 VH with S23T, M49I
VL: B10 VL
notes: unconjugated; also called 3M12 VH4/Vκ2
EC50 [1]: 5.01 nM
EC50 [2]: 0.5 nM

B14: humanized anti-TfR Fab 3M12 (VH3/Vk3) (Fab, V domains shown)
VH: B10 VH
VL: B10 VL with F87Y
notes: unconjugated; also called 3M12 VH3/Vκ3
EC50 [1]: 15.6 nM
EC50 [2]: 1.49 nM

B15: humanized anti-TfR Fab 3M12 (VH4/Vk3) (Fab, V domains shown)
VH: B10 VH with S23T, M49I
VL: B10 VL with F87Y
notes: unconjugated; also called 3M12 VH4/Vκ3
EC50 [1]: 16.4 nM
EC50 [2]: 0.28 nM
